B1: 908.9E11B6 (antibody, IgG1, V domains shown)
VH: QVQLKESGPGLVAPSQSLSITCTVSGFSLTSYGVHWVRQPPGKGLEWLGVIWAGGVTHYNSALMSRLNISKDNSQSQVFLKMNSLRTDDTAMYYCARGGALLRSHFDYWGQGTTLTVSS
VL: QAVVTQESALTTSPGETVTLTCRSSTGAVTTSNYANWVQEKPDHLFTGLIGGTNNRAPGVPARFSGSLIGDKAALTITGAQTEDEAIYHCALWYSNLWVFGGRTKLTVL
B2: 908.9G5B9 (antibody, V domains shown)
VH: EVQLQQSGAELVKPGASVKLSCTVSGFNITDTYIHWVKQRPEKGLEWIGRIDPANGNTKYDPKLQGKATITADTSSNTAYLQLSSLTSEDTAVYYCARDGTYVYYAMDYWGQGTSVTVSS
VL: DIQMTQSPASLSASVGETVTITCRASENIFIYLAWYQQKQGKSPQLLVYNAKTLAEGVPSRFSGSGSGTQFSLKINSLLPEDFGSYYCQHHYGIPFTFGSGTKLEIE
notes: Biotinylated in the Octet assay; fixed (capture) antibody in the sandwich ELISAs
B3: 908.10E12C1 (antibody, IgG1, V domains shown)
VH: EVQLQQSGPELVKPGASVKISCKTSGYTFTEYTMHWVKQSHGKSLEWIGSINPNNGGTNYNQKFKGKATLTVDKSSNTAYMELRSLTSGDSAVYYCARTLYYAMDYWGQGTSVTVSS
VL: DIVMTQSPSSLAMSVGQKVTMSCKSSQSLLNSSNQKNYLAWYQQKPRQSPKLLVYFASTRDSGVPDRFLGSGSGTDFTLTINRVQAEDLADYFCQQHYILPPTFGAGTKLELK

Legend:
[1] = target: recombinant IL-1RA (Homo sapiens (Human)) (UniProt P18510); experiment: Octet BLI, comparison of KD
Sequence of recombinant IL-1RA (Homo sapiens (Human)) (P18510 26-177): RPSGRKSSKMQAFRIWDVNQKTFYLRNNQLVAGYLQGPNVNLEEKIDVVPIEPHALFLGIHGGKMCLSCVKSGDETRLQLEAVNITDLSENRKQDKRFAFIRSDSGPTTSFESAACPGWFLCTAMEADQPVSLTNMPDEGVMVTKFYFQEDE

[2] = target: recombinant IL-1RA (Homo sapiens (Human)) (UniProt P18510); experiment: Octet BLI, biotinylated antibody on streptavidin biosensor, IL-1RA at 50 nM
[3] = target: recombinant IL-1RA (Homo sapiens (Human)) (UniProt P18510); experiment: Octet BLI, biotinylated antibody on streptavidin biosensor, IL-1RA at 14.8 nM
[4] = target: recombinant IL-1RA (Homo sapiens (Human)) (UniProt P18510); experiment: Octet BLI, biotinylated antibody on streptavidin biosensor, IL-1RA at 22.2 nM
[5] = target: recombinant IL-1RA (Homo sapiens (Human)) (UniProt P18510); experiment: Octet BLI, biotinylated antibody on streptavidin biosensor, IL-1RA at 33.3 nM
[6] = target: recombinant IL-1RA (Homo sapiens (Human)) (UniProt P18510); experiment: Octet BLI, biotinylated antibody on streptavidin biosensor, IL-1RA at 9.87 nM
[7] = target: recombinant IL-1RA (Homo sapiens (Human)) (UniProt P18510); experiment: Octet BLI, biotinylated antibody on streptavidin biosensor, IL-1RA in solution, 1:1 fit
[8] = target: T1, recombinant IL-1RA (Homo sapiens (Human), UniProt P18510 26-177); experiment: Octet BLI, biotinylated antibody on streptavidin biosensor, IL-1RA at 2.37 nM
T1 construct: also called IL-1RA antigen; IL-RA
T1 sequence (P18510 26-177): as above
Experimental: (§1) This antigen was tested at 12 nM at the first point, then diluted 1.5 times on 6 points for the first 4 antibodies.

[9] = target: T1, recombinant IL-1RA; experiment: Octet BLI, biotinylated antibody on streptavidin biosensor, IL-1RA at 3.55 nM
Experimental: as §1

[10] = target: T1, recombinant IL-1RA; experiment: Octet BLI, biotinylated antibody on streptavidin biosensor, IL-1RA at 5.33 nM
Experimental: as §1

[11] = target: T1, recombinant IL-1RA; experiment: Octet BLI, biotinylated antibody on streptavidin biosensor, IL-1RA in solution, 1:1 fit over 4 concentrations
Experimental: as §1
For each antibody, 4 concentrations were used to calculate the KD. The constant KD is related to the rate of complex formation (described by the rate constant of association, kon) and the rate of dissociation (described by the rate constant of dissociation, kdis), with KD=kdis/kon. A high affinity interaction is characterized by a low KD, rapid recognition (high kon) and stability of the complexes formed (low kdis). The R2 makes it possible to estimate the reliability of the results obtained (the closer it is to 1, the more reliable the results).

Molecule	fold lower affinity than the antibodies selected in examples 2, 3 [1]	Response [2]	Response [3]	Response [4]	Response [5]	Response [6]	Kd [7]	koff [7]	kon [7]	Response [8]	Response [9]	Response [10]	Kd [11]	koff [11]	kon [11]
anti-IL-1RA antibody MAB280 from R&D Systems	> 10 times	0.151	0.0761	0.105	0.121	0.0638	50.8 nM	0.00718 s⁻¹	142000 M⁻¹ s⁻¹						
B1										0.101	0.154	0.229	4.86 nM	0.000865 s⁻¹	178000 M⁻¹ s⁻¹
B2										0.092	0.132	0.2	3.84 nM	0.00131 s⁻¹	342000 M⁻¹ s⁻¹
B3										0.107	0.15	0.21	1.76 nM	0.000464 s⁻¹	264000 M⁻¹ s⁻¹
